# Test results: article PMC9482650, “Quantitative fragmentomics allow affinity mapping of interactomes” (Nature Communications, 2022)
# T1: DVL1, O14640
# T1 sequence (O14640 246-333, limits assumed, looked up): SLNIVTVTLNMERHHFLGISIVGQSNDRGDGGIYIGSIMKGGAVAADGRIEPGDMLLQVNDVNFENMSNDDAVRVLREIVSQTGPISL
# T2: INTU, Q9ULD6
# T2 sequence (Q9ULD6 180-273, limits assumed, looked up): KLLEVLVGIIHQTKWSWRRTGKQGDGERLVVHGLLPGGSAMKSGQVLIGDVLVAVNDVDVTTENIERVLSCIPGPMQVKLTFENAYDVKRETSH
# T3: NHERF1_1, O14745
# T3 sequence (O14745 9-104, limits assumed, looked up): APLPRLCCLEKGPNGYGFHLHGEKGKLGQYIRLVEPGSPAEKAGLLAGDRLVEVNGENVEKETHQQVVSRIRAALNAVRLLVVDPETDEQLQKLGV
# T4: PDZD7_2, Q9H5P4
# T4 sequence (Q9H5P4 205-303, limits assumed, looked up): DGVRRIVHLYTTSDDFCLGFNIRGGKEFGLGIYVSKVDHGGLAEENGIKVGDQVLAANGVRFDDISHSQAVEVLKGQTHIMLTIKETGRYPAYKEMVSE
# T5: SHANK3, Q9BYB0
# T5 sequence (Q9BYB0 641-750, limits assumed, looked up): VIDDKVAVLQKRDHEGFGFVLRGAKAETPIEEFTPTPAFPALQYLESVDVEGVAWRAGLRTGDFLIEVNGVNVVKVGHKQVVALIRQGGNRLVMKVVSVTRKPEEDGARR
# T6: LNX2_1, Q8N448
# T6 sequence (Q8N448 228-328, limits assumed, looked up): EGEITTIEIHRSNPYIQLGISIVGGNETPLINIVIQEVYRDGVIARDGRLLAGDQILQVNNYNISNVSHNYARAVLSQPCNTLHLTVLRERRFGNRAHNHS
# T7: APBA3_2, O96018
# T7 sequence (O96018 480-570, limits assumed, looked up): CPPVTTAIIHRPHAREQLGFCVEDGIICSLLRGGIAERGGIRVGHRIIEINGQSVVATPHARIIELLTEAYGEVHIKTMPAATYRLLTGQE
# T8: SHANK2, Q9UPX8
# T8 sequence (Q9UPX8 621-730, limits assumed, looked up): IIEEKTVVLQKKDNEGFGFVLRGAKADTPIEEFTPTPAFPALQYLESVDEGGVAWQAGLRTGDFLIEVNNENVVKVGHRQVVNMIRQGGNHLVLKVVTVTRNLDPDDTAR
# T9: USH1C_1, Q9Y6N9
# T9 sequence (Q9Y6N9 82-179, limits assumed, looked up): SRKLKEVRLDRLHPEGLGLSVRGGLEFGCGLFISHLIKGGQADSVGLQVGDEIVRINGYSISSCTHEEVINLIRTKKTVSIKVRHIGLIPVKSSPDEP
# T10: PDZD2_3, O15018
# T10 sequence (O15018 581-682, limits assumed, looked up): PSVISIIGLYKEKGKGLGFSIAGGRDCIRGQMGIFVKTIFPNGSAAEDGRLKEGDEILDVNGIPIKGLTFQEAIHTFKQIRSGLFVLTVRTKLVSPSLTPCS
# T11: LNX2_4, Q8N448
# T11 sequence (Q8N448 595-690, limits assumed, looked up): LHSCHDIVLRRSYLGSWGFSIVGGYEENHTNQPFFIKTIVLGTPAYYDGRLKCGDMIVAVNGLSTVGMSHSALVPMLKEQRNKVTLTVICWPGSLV
# T12: SIPA1L3, O60292
# T12 sequence (O60292 961-1052, limits assumed, looked up): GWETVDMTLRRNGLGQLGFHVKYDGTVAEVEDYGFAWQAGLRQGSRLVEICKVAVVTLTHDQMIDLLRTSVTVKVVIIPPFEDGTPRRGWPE
# T13: MLLT4, P55196
# T13 sequence (P55196 1002-1103, limits assumed, looked up): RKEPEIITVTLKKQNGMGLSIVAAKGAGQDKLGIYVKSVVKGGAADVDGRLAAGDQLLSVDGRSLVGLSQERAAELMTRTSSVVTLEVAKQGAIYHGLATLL
# T14: USH1C_2, Q9Y6N9
# T14 sequence (Q9Y6N9 206-303, limits assumed, looked up): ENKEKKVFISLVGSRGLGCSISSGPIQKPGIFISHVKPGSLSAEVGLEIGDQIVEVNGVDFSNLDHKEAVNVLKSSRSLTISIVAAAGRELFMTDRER
# B1: SARS-CoV-E, P59637 (peptide)
# chain: NLNSSEGVPDLLV
# Key:
# Experiment in all cases: holdup assay
# Settings in all cases: plain residues with an end cap or a label only (N-terminal biotin on a linker: (peg)3)
# DVL1, O14640 = molecular target: T1, DVL1, O14640
# MAST3, O60307 = molecular target: MAST3, O60307
# MAST3, O60307, sequence (O60307 945-1048): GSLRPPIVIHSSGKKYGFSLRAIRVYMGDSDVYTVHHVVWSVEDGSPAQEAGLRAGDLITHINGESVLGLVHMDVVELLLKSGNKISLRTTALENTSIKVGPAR
# PDZRN4_2, Q6ZMN7 = molecular target: PDZRN4_2, Q6ZMN7
# PDZRN4_2, Q6ZMN7, sequence (Q6ZMN7 389-498): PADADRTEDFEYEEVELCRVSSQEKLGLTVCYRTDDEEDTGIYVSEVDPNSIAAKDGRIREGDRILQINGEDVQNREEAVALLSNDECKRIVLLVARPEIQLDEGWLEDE
# INTU, Q9ULD6 = molecular target: T2, INTU, Q9ULD6
# NHERF1_1, O14745 = molecular target: T3, NHERF1_1, O14745
# TJP1_1, Q07157 = molecular target: TJP1_1, Q07157
# TJP1_1, Q07157, sequence (Q07157 18-120): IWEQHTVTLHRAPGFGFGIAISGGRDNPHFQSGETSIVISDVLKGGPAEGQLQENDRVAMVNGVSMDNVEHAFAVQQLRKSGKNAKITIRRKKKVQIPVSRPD
# PDZD7_2, Q9H5P4 = molecular target: T4, PDZD7_2, Q9H5P4
# SHANK3, Q9BYB0 = molecular target: T5, SHANK3, Q9BYB0
# LNX2_1, Q8N448 = molecular target: T6, LNX2_1, Q8N448
# DLG5_2, Q8TDM6 = molecular target: DLG5_2, Q8TDM6
# DLG5_2, Q8TDM6, sequence (Q8TDM6 714-800): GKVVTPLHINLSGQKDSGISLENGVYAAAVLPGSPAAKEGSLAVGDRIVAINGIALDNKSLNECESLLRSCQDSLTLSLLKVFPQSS
# APBA3_2, O96018 = molecular target: T7, APBA3_2, O96018
# SHANK2, Q9UPX8 = molecular target: T8, SHANK2, Q9UPX8
# USH1C_1, Q9Y6N9 = molecular target: T9, USH1C_1, Q9Y6N9
# PDZD2_3, O15018 = molecular target: T10, PDZD2_3, O15018
# NHERF4_3, Q86UT5 = molecular target: NHERF4_3, Q86UT5
# NHERF4_3, Q86UT5, sequence (Q86UT5 325-412): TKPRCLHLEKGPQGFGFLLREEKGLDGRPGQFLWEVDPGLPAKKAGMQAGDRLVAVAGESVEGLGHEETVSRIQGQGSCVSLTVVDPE
# LNX2_4, Q8N448 = molecular target: T11, LNX2_4, Q8N448
# NHERF2_1, Q15599 = molecular target: NHERF2_1, Q15599
# NHERF2_1, Q15599, sequence (Q15599 9-91): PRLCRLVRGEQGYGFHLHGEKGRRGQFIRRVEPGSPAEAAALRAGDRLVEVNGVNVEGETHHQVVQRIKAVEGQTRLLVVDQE
# MAGI1_4, Q96QZ7 = molecular target: MAGI1_4, Q96QZ7
# MAGI1_4, Q96QZ7, sequence (Q96QZ7 other isoform, or with tags, fused parts or gaps): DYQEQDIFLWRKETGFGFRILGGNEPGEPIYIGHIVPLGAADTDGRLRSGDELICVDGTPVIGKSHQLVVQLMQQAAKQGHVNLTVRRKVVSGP
# SIPA1L3, O60292 = molecular target: T12, SIPA1L3, O60292
# MLLT4, P55196 = molecular target: T13, MLLT4, P55196
# RIMS2, Q9UQ26 = molecular target: RIMS2, Q9UQ26
# RIMS2, Q9UQ26, sequence (Q9UQ26 637-758): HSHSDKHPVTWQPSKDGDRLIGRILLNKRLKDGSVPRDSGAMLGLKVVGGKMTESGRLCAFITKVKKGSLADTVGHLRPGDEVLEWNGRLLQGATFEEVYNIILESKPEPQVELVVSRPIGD
# USH1C_2, Q9Y6N9 = molecular target: T14, USH1C_2, Q9Y6N9
binder,measurement,setting,value
B1,pKd,"DVL1, O14640",below the threshold
same,pKd,"MAST3, O60307",below the threshold
same,pKd,"PDZRN4_2, Q6ZMN7",4.05
same,pKd,"INTU, Q9ULD6",below the threshold
same,pKd,"NHERF1_1, O14745",below the threshold
same,pKd,"TJP1_1, Q07157",below the threshold
same,pKd,"PDZD7_2, Q9H5P4",below the threshold
same,pKd,"SHANK3, Q9BYB0",below the threshold
same,pKd,"LNX2_1, Q8N448",below the threshold
same,pKd,"DLG5_2, Q8TDM6",below the threshold
same,pKd,"APBA3_2, O96018",below the threshold
same,pKd,"SHANK2, Q9UPX8",below the threshold
same,pKd,"USH1C_1, Q9Y6N9",below the threshold
same,pKd,"PDZD2_3, O15018",below the threshold
same,pKd,"NHERF4_3, Q86UT5",below the threshold
same,pKd,"LNX2_4, Q8N448",3.74
same,pKd,"NHERF2_1, Q15599",below the threshold
same,pKd,"MAGI1_4, Q96QZ7",below the threshold
same,pKd,"SIPA1L3, O60292",below the threshold
same,pKd,"MLLT4, P55196",4.31
same,pKd,"RIMS2, Q9UQ26",below the threshold
same,pKd,"USH1C_2, Q9Y6N9",below the threshold
